From patent US20130280250A1

How the values were obtained:
[1] = target: gp41 of HIV-1 6794 (HIV-1 6794); experiment: cell-based or functional assay
[2] = target: gp41 of HIV-1IIIB (HIV-1IIIB) (UniProt P03377); experiment: cell-based or functional assay
CD20 (human) [3] = target: CD20 (human) (UniProt P11836); experiment: Scatchard analysis, radio-iodinated sample on Raji cells; apparent association constant
CD20 (human) [4] = target: CD20 (human) (UniProt P11836); experiment: cell-based or functional assay
CD20 (human) [5] = target: CD20 (human) (UniProt P11836); experiment: flow cytometry on Daudi cells, PE-anti-Fab

Substance | EC50 estimated, neutralization of HIV-1 6794 in PBMCs, 50TCID50 [1] [pM] | EC50 estimated, neutralization of HIV-1 6794 in PBMCs, 100TCID50 [1] [pM] | EC50 estimated, neutralization of HIV-1IIIB in Jurkat T cells, 50TCID50 [2] [pM] | EC50 estimated, neutralization of HIV-1IIIB in Jurkat T cells, 100TCID50 [2] [pM] | Ka (CD20 (human) [3]) [M⁻¹] | EC50, inhibition of proliferation of Daudi cells (4-d MTS assay) (CD20 (human) [4]) [pM] | EC50, inhibition of proliferation of Raji cells (4-d MTS assay) (CD20 (human) [4]) [pM] | EC50, inhibition of proliferation of Ramos cells (4-d MTS assay) (CD20 (human) [4]) [pM] | EC50, viable cell counting assay, Ramos, 3 days (CD20 (human) [4]) [pM] | inhibition of cell proliferation at 0.5 nmol/L, viable cell counting, Raji and Ramos (CD20 (human) [4]) [%] | greater fluorescence intensity than veltuzumab (PE-anti-Fab) (CD20 (human) [5]) [%]
hLL2-(T20)4 | < 200 | < 200 | < 200 | 100 |  |  |  |  |  |  | 
T20 HIV fusion inhibitor (enfuvirtide, FUZEON) (peptide) | 9000 | 9000 | 9000 |  |  |  |  |  |  |  | 
Hex-hA20 (hexavalent anti-CD20 antibody, six Fabs with one Fc) |  |  |  |  | 3.9e+08 | 150 | 64 | 150 | 170 | > 50 | 40 to 50
